# Results published in the DeepSol protein solubility set.
# Assay: soluble on expression in E. coli; label from the status in PepcDB or PDB records
row,Sequence,soluble on expression in E. coli
1,MGHHHHHHSHMDEGVKEKFIGAVLGAAVGDALGKSVEDITEEEVFEFYGDRIRDFVTPHPSSPAYGQLPEETSDETTIFRLLLESLVEKKALDVRDFLNRLMEWYDREEMHRYPDPMLLTAIDLLSRGINPSTHGLTSFSVEGILRSVALGLYHYYNPELAAEGSKVVSLLTHRSDVISDASAILGALIAHLVRGDFYLEDFREKLRLIETLKDYAKEEKHKKILDRVAELLMESADLETAINTLGNGTFAFEAFPLALYIFLSNVENPEEALFQAVNSYGEFGGDTDAIGFLVGAMLGAYYGEEAIPYHLRENVENSQKLRELAERLYEVVEKQVGFSQ,soluble
2,NGEEHEQTHRAIFRFVPRHEDELELEVDDPLLVELQAEDYWYEAYNMRTGARGVFPAYYAIEVTKEPEHMA,soluble
3,MGSDKIHHHHHHMKIGVVGPGAIGLLYTFYLQKSNQDVTLFTRTAKQADELNITGVTCIREGKRETVFPPVLPIESMLDQQLDYIFIAVKQYHITDILPFVRGKSSVVFLQNGMSHLHAMQKIENENIAVGIVEHGAKKEERHTVYHTGIGVTKFGIVRGRSIHFEKIFNCFPFPHFPIRIEDDWKGVMHKKLVVNVCINPLTALLQVKNGELITNPFFNQMMEQVFQEVVFLVKEEKEMVWEMVRHVCERTSHNTSSMLADVRANRQTEIGAIVGYVLEEAKKQQRSVPTLQFLFDAIKGLEVKV,not soluble
4,MAEAPPVSGTFKFNTDAAEFIPQERKTSGLNCGTQRRLDSSRIGRRNYSSSPPCHLPRHIPYEDISAVHQHSYASGSKPKSPQGFFQSSNKSLKNHGLQNQPWQKARNEKHQNRNKKAQGLSEQTSDTSSLESVARSESGTNPREHSPSESEKEVVIADPRGAKPKKAAQLTYNYGRGPKAKGRLRSEWGNRMSPKSEDENTRPVAISHTDSSDASCRKPVVDPCVCRRNEQRRYPQKRPPWEVEGARPRPGRNPPKQESQRHINAGPKTNMSPIPKDNLRERPTKSACDTGNLAVVSKSSRRVNQEKTAVRRQDPQVLSPFPRGKQNHMLKNVETHTGSLIEQLTTEKYECMVCCELVQVTAPVWSCQSCFHVFHLNCIKKWARSPASHADGQSGWRCPACQNVSAHVPNTYTCFCGKVKNPEWSRNEIPHSCGEVCRKKQPGQDCPHSCNLLCHPGPCPPCPAFTTKTCECGRTRHTVRCGQPVSVHCSNACENILNCGQHHCAELCHGGQCQPCRIILNQVCYCGSTSRDVLCGTDVGKSDGFGDFSCLKICGKDLKCGSHTCSQVCHPQPCQPCPRLPHLVRYCPCGQTPLSQLLEHGSNARKTCMDPVPSCGKVCGKPLACGSSDFIHTCEKLCHEGDCGPCSRTSVISCRCSFRTKELPCTSLKSEDATFMCDKRCNKKRLCGRHKCNEICCVDKEHKCPLICGRKLRCGLHRCEEPCHRGNCQTCWQASFDELTCHCGASVIYPPVPCGTRPPECTQTCARIHECDHPVYHSCHSEEKCPPCTFLTQKWCMGKHEELTIKKLWTFKETLDF,soluble
5,STRPVGGTEYSWCRAIDGGTGIAVIALLLSRTPKLQNLQNTLDKLQIYHPTLRSNIRFDASANSFSFVVTSAADSHVEIHPFDSVSTAQIIRDSDDPCADPHRIILEHEMNKNTWINPHRWIKSESRVFIVSLYDLTDDGEQRILTFRLNTAAVDRTAAVTLLREFMKETAADGFGNGPVVAATETAVGLGKAIEELIPSGKGDKPFWARGIDVLGYSLNAFRFSNLNFVDAENSNRRSQLVRLKLDRDQTLKLVAGCKARGLKLWAALASSALIAAYSSKNLPPYQGEKYAVVTLSDCRSILEPPLTSNDFGFYHAGILHTHDLTGEEKLWDLAKRCYDSFTSSKNSNKQFTDMSDLNFLMCKAIENPNLTPSSSLRTAFISIFEDPVIDESPEPELASLGVQDYIGCASIHGVGPSVAVFDALRDGKLDCAFVYPSPLHSREQMDGLIQHMKTILLEGSASSF,soluble
6,MDKRLLKRLSAPLLAAALWTIPLHSHADTQPLTSQDTKLLTSQIVDQYAEHIFYNSGAVGMALVVIDNNQVVNRSFGETQPGNNIRPRPDSLIRIASITKLMTSEIMVKLADDGIVKLTDPLKKYAPKGVNVPSYSAKQPIRLLHLASHTSGLPREQPGGPQKRPVFTWPTKDNRWQWLKLAKVTVPPGVKAAYSNLAYDLLADALSRAAGKPYAHLLRDKITAPLGMKNTTLTPTAEQCKRLMIGVGSSRCGNTVAAAGSGGIYSTPEDMQHWMQQFLASDNSAPKRSAKREQALYFQRGDLVSLKGMDVAGQADALGLGWVYMAPKADLPGIMQKTGGGGGFITYMAMVPEKNIGVFVVVTRSQLTKFSNMSDGVNQLVAELVKNH,not soluble
7,DAAVTPEERHLSKMQQNGYENPTYKFFEQMQNSGPSSGIEGRGSSGSSGSSGSSGPTPKTELVQKFRVQYLGMLPVDRPVGMDTLNSAIENLMTSSSKEDWPSVNMNVADATVTVISEKNEEEVLVECRVRFLSFMGVGKDVHTFAFIMDTGNQRFECHVFWCEPNAANVSEAVQAAC,soluble
8,MGSDKIHHHHHHMNKNMIKGMIVFAAIAEKGSMSAAAQQLNLSSSAVSQQVTKLEMDMGISLFHRNTRNLTLTEAGSLFYENCRKVIAIVESTEQKLNNLKGIPSGELKIAAPIGFGGGLLSEPFNYLLAAHPQISLNLLLQDGPIDIVNEGIDLAICIGPLSDSNLIARHLADWRMLLCASPDYLPMHKIFKHPAELAAFNRINHPCANSETLTHVRNKECFELTSQRITVNNMQALIQLTLDGLGFAALPEPEVHKYLESGQLVTLLPEWSLNTYSVYSVTSARDKQPAKVKEALNTLSQYFSQANFNPAYHFKQCVQKDGTKGSVTNILPIKPKQASHHADVDHAS,not soluble
9,MGSDKIHHHHHHMMLQIPDVLSKAQVAQCRQMMDVADWTDGNATSGHQSALAKRNMQLPEGSPVARQIGDLIQDALGANATFFSAALPLKVFPPLFNRYEGGQAFDNHVDNAIRYLRGTGFRVRSDLSATLFLTEPQDYDGGELVIEDTYGQHRVKLPAGYMVLYPATSLHHVTPVTRGARVSSFFWIQSMVRDEGQRALLFELDTRIQQVAEEMGQKDSGVVGLTGVYHNLLRRWADA,not soluble
10,MTPTTTPVSNPDALSTGTQDVHTLKGTLQRLAPGTPLRDGLDRIVRGHTGALIVIGDDENVSSICDGGFEFDVSFAATRLRELCKMDGAVILSSDLERIKRANVQLLPSPTWPTQESGTRHRSAERTALHTGVPVIAVSESQNTITLYVEGKSHMLEQPAALLNRANQALGTMERYRDRLDQVNNRLHLAELHSYVTVIDVVSVIQREEMLRRVGEIIDGDVLELGKDAKEIQIQLSELRGDNDRERESIIADYLVTDGIPADEEIHAALEAISHLDDKALLNPANIARVLGLPPTEEALDEPVTPRGYRTLNRIPRVQKFLMDKLIVEFGNLDALLNASVEDLSAVDGVGSLWARHITDGLGRLS,not soluble
11,GPGSMADNEEVPPSGPRMTREETDELVRRLYDQQMERAARREEERQRQLARPFCSSRRIKKDEEENLVRRIYDVQRERFQQSKEERERRLTLELQSKDKKLPESEIQDQVDRIYNQEVAKSKARREELQKRYLPEVPPKTIGKKQLKESVERLFRVDYVKRDEELFKKHVYPYDPPTTKISRTDVEAMANRLSRRGS,not soluble
12,KRGRSVLVLDHAKKPGRKILISGGGRCNFTNYDVSASNYLCQNPHFVKSALSQYTNWDFISMVSKHGIEFEERDHGQLFCVDAFTAKDIVKMLLAECDMPNIQQRYQCDVHTIEKTEEGFRLHAGTEPVECESLVVATGGLSMPKLGATPFGYKVAEQ,not soluble
13,AKITKVQVGEALVGDGNEVAHIDLIIGPRGSPAETAFCNGLVNNKHGFTSLLAVIAPNLPCKPNTLMFNKVTINDARQAVQMFGPAQHGVAMAVQDAVAEGIIPADEADDLYVLVGVFIHWEAADDAKIQKYNYEATKLSIQRAVNGEPKASVVTEQRKSATHPFAANA,soluble
14,MKFDFPQVDLPCEILAWNDVTEDILNIYKQSCRLKAGIFAICTEGKMTATINLIDYEIKPNDLITLLPGTIIQFRERTEKVRLCFAGFSSECVERINLIKSMVSSFSKITECPIVELQEDIASYLIDYFSLLARVTCDEKLSLPSEMTEVSLRSILTAVGLIYQRYSSKNHNTNRKEEICRELVGLVTEHYTEERRAQFYADKLGISLQHLSTTVKQVTGRNVLDVIAYVVIIDAKAKLKSSNMTIQEIAYSLNFPSASFFGKYFRRYVGMSPLEFRNS,not soluble
